Measured values published in patent publication US8071348B2, “Protein tyrosine phosphatase substrate-trapping double mutant and uses thereof” (Albert Einstein College of Medicine of Yeshiva University, priority 2002, dated 2011).
Like-named read-outs stand apart in the source and are kept apart here.

T1: EGFR 988-998 peptide DADEpYLIPQQG
T1 chain: DADEXLIPQQG

T2: EGFR^988-998 peptide, DADEpYLIPQQG (Homo sapiens, UniProt P18031, Q262A)
T2 construct: The catalytic domain of PTP1B (residues 1 to 321) was used for in vitro study; made in house; host or cells: E. coli (pT7-7 plasmids)
T2 sequence (P18031 1-321 Q262A): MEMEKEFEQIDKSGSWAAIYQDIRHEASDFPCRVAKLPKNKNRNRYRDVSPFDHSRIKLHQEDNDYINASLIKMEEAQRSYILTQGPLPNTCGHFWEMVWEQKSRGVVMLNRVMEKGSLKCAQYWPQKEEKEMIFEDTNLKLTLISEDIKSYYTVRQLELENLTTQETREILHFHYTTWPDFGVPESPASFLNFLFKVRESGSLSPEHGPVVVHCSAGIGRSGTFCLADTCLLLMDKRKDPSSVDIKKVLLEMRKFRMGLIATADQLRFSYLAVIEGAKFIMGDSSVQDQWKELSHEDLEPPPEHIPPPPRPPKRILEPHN


Experiments:
[1] = test system: EGFR^988-998 peptide, DADEpYLIPQQG; assay: Kinetic constants for PTP1B-catalyzed hydrolysis of pTyr-containing EGFR988-998 peptide; format: biochemical; conditions: EGFR988-998 peptide as substrate; 25° C. and pH 7.0
Excerpt: (§1) The catalytic domain of PTP1B (residues 1 to 321) was used for in vitro study. PTP1B mutants, C215S, D181A, and Q262A, were described previously (9, 25, 26). PTP1B double mutants, D181A/C215S and C215S/Q262A, were generated by PCR reactions, according to the standard procedure of the Quick-Change™ site-directed mutagenesis kit (Stratagene), using pT7-7/PTP1B/C215S as a template. PTP1B double mutants, D181A/C215E and D181A/Q262A, were generated by similar PCR procedures, using pT7-7/PTP1B/D181A as a template. The recombinant wild-type and mutant PTP1Bs were expressed in E. coli, and purified to homogeneity as described (25, 27). Protein concentration was determined from absorbance measurement at 280 nm, using an absorbance coefficient of 1.24 for 1 mg/ml PTP1B.
All assays were performed at 25° C. in buffer (pH 7.0, ionic strength=0.15 M) containing 50 mM 3,3-dimethylglutarate and 1 mM EDTA. A continuous spectrophotometric assay, previously described (28), was employed to determine kcat and Km for the pTyr-containing peptides. The dephosphorylation reaction was monitored by either an increase in absorbance at 282 nm, or an increase in fluorescence at 305 nm. Fluorometric and absorbance determinations were performed on a Perkin-Elmer LS50B fluorometer and a Perkin-Elmer Lambda 14 spectrophotometer, respectively. The instruments were equipped with a water-jacketed cell holder, permitting maintenance of the reaction mixture at the desired temperature (25° C.).

[2] = target: Ac-Asp-Ala-Asp-Glu-F2Pmp-Leu-NH2; conditions: ITC, 25° C. and pH 7.0; data from (24); cited from earlier work
[3] = Kinetic constants for PTP1B-catalyzed hydrolysis of pNPP; format: biochemical; conditions: pNPP as substrate; 25° C. and pH 7.0
Excerpt: as §1
PTP activity was assayed at 25° C. and pH 7.0, in a reaction mixture (0.2 ml) containing pNPP concentrations ranging from 0.2 to 5 Km. The following buffered solution was used for activity measurements: pH 7.0, 50 mM 3,3-dimethylglutarate, 1 mM EDTA; the ionic strength was 0.15 M, as adjusted by addition of NaCl. Initial rate measurements for the enzyme-catalyzed hydrolysis of pNPP were conducted as previously described (26). Michaelis-Menten kinetic parameters were determined from a direct fit of the data to the Michaelis-Menten equation, using the nonlinear regression program, KINETASYST (Intellikinetics, State College, Pa.).

EGF receptor = assay: Substrate protection: EGF receptor tyrosine phosphorylation in COS1 cells expressing PTP1B forms (anti-pTyr Western blot); format: cell-based, Monkey; conditions: COS1 cell lysates, anti-pTyr immunoblot (FIG. 4)
Method: FIG. 4 sets forth Western blots (WB) that show the level of tyrosine phosphorylation in the epidermal growth factor receptor (EGFR) upon expression of the wild-type and mutant PTP1Bs (4 μg plasmid/60 mm dish) in COS1 cells. Samples (50 μg total protein) were taken from the lysates of COS1 cells transfected with 4 μg of pJ3H plasmids expressing HA-tagged wild-type PTP1B, D181A, C215S, D181A/Q262A, or D181A/C215S. These samples were loaded into each lane for SDS-PAGE electrophoresis, and transferred onto a nitrocellulose membrane. The proteins on the membrane were first immunoblotted with anti-pTyr HRP conjugate (upper panel). The membrane was then stripped and re-probed with anti-hemagglutinin (anti-HA) HRP conjugate (lower panel).
The hemagglutinin-tagged (HA-tagged) full-length human wild-type PTP1B in pJ3H expression vector was a gift from Dr. Chemoff (30). The HA-tagged PTP1B mutants, C215S, D181A, D181A/C215S, and D181A/Q262A, were generated by PCR reactions, according to the standard procedure of the Quick-Change™ site-directed mutagenesis kit (Stratagene), using pJ3H-HA-PTP1B as a template. All mutations were verified by DNA sequencing.
Monkey kidney COS1 cells (ATCC: CRL-1650) were maintained in Dulbecco's modified Eagle's minimum essential medium (DMEM), supplemented with 10% fetal bovine serum (Life Technologies, Inc.), penicillin (50 units/ml), streptomycin (50 μg/ml), and L-glutamine (2 mM) under a humidified atmosphere containing 5% CO2. In transient transfection experiments, COS1 cells were inoculated at a density of 2×10^5 cells/60-mm dish, and grown overnight in DMEM containing 10% fetal bovine serum. Transfection was performed using LipoTAXI^R according to the manufacturer's recommendations (Stratagene, Cedar Creek, Tex.). Each transfection assay included 4 μg of purified DNA mixed with LipoTAXI^R in a 1:5 DNA:lipid ratio per 60-mm dish of cells. Following transfection, the cells were exchanged to normal culture medium, and maintained for 44 to 48 h at 37° C. and 5% CO2. The efficiency of transfection, as assessed by 5-bromo-4-chloro-3-indolyl-β-D galactoside (X-Gal) staining of pCMV-β-gal-transfected (β-Gal staining kit, Invitrogen) COS cells, was 25%.
The transfected cells (treated with or without EGF) were lysed with “lysis buffer” containing 50 mM Tris-HC1 (pH 7.5), 5 mM EDTA, 150 mM NaCl, 10 mM sodium phosphate, 10 mM sodium fluoride, 5 mM iodoacetic acid, 1 mM benzamidine, 1% Triton X-100, 10 μg/ml leupeptin, and 5 μg/ml Aprotinin. Lysate protein concentration was estimated using Bio-Rad protein assay reagent (Bio-Rad, Hercules, Calif.).
For immunoprecipitation, 1 mg of cell lysate was immunoprecipitated overnight with 30 μl of agarose-conjugated anti-hemagglutinin antibody at 4° C. Immunocomplexes were washed four times with the cell lysis buffer, and boiled for 5 min in SDS-PAGE sample buffer. Proteins in the cell lysate were separated by 8% SDS-PAGE under reducing conditions, according to the method of Laemmli (31), followed by blotting onto nitrocellulose membranes (Protran, Schleicher & Schuell). The nitrocellulose membranes were blocked with 5% non-fat dry milk in Tris-buffered saline/Tween (TBST) buffer (20 mM Tris-HC1, 150 mM NaCl, 0.1% Tween-20; pH 7.6) for 1 h at 25° C.
Thereafter, blots were incubated overnight with primary antibodies diluted in TBST containing 5% non-fat dry milk at 4° C. […]

[4] = target: T1, EGFR 988-998 peptide DADEpYLIPQQG
[5] = target: T2, EGFR^988-998 peptide, DADEpYLIPQQG; conditions: cited from earlier work
[6] = pNPP as substrate, cited from earlier work
[7] = EGFR988-998 peptide as substrate, 30° C. and pH 7.0 (26)
[8] = hydrolysis of EGFR988-998 peptide and phosphorylated lysozyme, previous kinetic studies (18, 26)

Row | Molecule | Km [1] | kcat [1] | Kd [2] | Km [3] | kcat [3] | level of pTyr in the EGF receptor / enhancement of EGF receptor phosphorylation (EGF receptor) | Km (hydrolysis of the EGFR 988-998 peptide, 25 C, pH 7.0) [4] | Km [5, 7] | kcat [5, 7] | fold reduction of kcat ([5]; EGFR988-998 peptide as substrate, (26)) | fold decrease in Km ([5]; EGFR988-998 peptide as substrate, shown previously (26)) | fold reduction of kcat [5, 8] | fold reduction of kcat/Km [5, 8] | Km ([6]; 30° C. and pH 7.0 (26)) | kcat ([6]; 30° C. and pH 7.0 (26)) | fold reduction of kcat ([6]; (26)) | fold decrease in Km ([6]; shown previously (26))
1 | wild-type PTP1B, catalytic domain (residues 1 to 321) (protein) MEMEKEFEQIDKSGSWAAIYQDIRHEASDFPCRVAKLPKNKNRNRYRDVSPFDHSRIKLHQEDNDYINASLIKMEEAQRSYILTQGPLPNTCGHFWEMVWEQKSRGVVMLNRVMEKGSLKCAQYWPQKEEKEMIFEDTNLKLTLISEDIKSYYTVRQLELENLTTQETREILHFHYTTWPDFGVPESPASFLNFLFKVRESGSLSPEHGPVVVHCSAGIGRSGTFCLADTCLLLMDKRKDPSSVDIKKVLLEMRKFRMGLIQTADQLRFSYLAVIEGAKFIMGDSSVQDQWKELSHEDLEPPPEHIPPPPRPPKRILEPHN | 2.6 ± 0.3 µM | 30 ± 1 s^− | 240 ± 50 nM | 2400 ± 200 µM | 9.8 ± 0.5 s⁻¹ | comparable to that in the vector control | 2.6 µM | – | – | – | – | – | – | – | – | – | –
2 | Q262A: PTP1B mutant, Gln262 replaced by Ala, described previously (protein, UniProt P18031 1-435, looked up, variant Q262A) Tyrosine-protein phosphatase …: MEMEKEFEQIDKSGSWAAIYQDIRHEASDFPCRVAKLPKNKNRNRYRDVSPFDHSRIKLHQEDNDYINASLIKMEEAQRSYILTQGPLPNTCGHFWEMVWEQKSRGVVMLNRVMEKGSLKCAQYWPQKEEKEMIFEDTNLKLTLISEDIKSYYTVRQLELENLTTQETREILHFHYTTWPDFGVPESPASFLNFLFKVRESGSLSPEHGPVVVHCSAGIGRSGTFCLADTCLLLMDKRKDPSSVDIKKVLLEMRKFRMGLIATADQLRFSYLAVIEGAKFIMGDSSVQDQWKELSHEDLEPPPEHIPPPPRPPKRILEPHNGKCREFFPNHQWVKEETQEDKDCPIKEEKGSPLNAAPYGIESMSQDTEVRSRVVGGSLRGAQAASPAKGEPSLPEKDEDHALSYWKPFLVNMCVATVLTAGAYLCYRFLFNSNT | – | – | – | – | – | – | – | 0.35 ± 0.05 µM | 0.29 ± 0.002 s^− | 150 fold | 7.4 fold | 100 fold | 10 fold | 58 ± 6 µM | 0.21 ± 0.01 s⁻¹ | 80 fold | 38 fold
